For one substance, relative activation of bTH-pS19 activity (maximal, 12.5–100 µg/ml thrombin-cleaved 14-3-3, BH4 as cofactor); lowest activation and relative activation of bTH-pS19 activity (maximal, 12.5–100 µg/ml thrombin-cleaved 14-3-3, BH4 as cofactor); highest activation results are on record in paper PMC4833811.

In one assay the target is 14-3-3ε:ζ heterodimer (UniProt P62258).
In the next assay the target is T1, GST-14-3-3γ:γ homodimer (UniProt P61981).
T1 sequence: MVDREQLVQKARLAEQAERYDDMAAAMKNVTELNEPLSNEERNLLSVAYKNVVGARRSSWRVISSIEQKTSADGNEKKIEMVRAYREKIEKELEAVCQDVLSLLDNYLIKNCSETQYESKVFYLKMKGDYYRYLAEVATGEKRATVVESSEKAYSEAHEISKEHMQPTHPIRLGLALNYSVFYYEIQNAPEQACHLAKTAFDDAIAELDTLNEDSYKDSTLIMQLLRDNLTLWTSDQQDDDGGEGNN

Chain of UniProt P62258 (P62258 whole entry, chain 1 of 2): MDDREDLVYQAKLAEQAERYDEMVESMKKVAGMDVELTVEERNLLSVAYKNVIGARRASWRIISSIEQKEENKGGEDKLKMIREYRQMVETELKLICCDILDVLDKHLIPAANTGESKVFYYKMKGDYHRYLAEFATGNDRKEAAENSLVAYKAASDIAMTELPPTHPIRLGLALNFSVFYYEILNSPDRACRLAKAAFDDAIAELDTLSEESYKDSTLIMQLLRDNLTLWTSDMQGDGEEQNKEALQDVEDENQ
Chain of UniProt P62258 (P62258 other isoform, or with tags, fused parts or gaps, chain 2 of 2): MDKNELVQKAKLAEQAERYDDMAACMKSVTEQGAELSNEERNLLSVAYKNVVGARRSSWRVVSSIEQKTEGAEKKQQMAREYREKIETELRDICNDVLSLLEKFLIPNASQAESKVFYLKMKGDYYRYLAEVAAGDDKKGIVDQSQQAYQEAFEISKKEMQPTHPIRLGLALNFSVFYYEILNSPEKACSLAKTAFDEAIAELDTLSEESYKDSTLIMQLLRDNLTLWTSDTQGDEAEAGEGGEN

On to “bovine tyrosine hydroxylase phosphorylated by PRAK on Ser19 (from UniProt P17289 1-491) (enzyme)”, for which the relative activation of bTH-pS19 activity (maximal, 12.5–100 µg/ml thrombin-cleaved 14-3-3, BH4 as cofactor); lowest activation with 14-3-3ε:ζ heterodimer was determined as 3.3 fold. The relative activation of bTH-pS19 activity (maximal, 12.5–100 µg/ml thrombin-cleaved 14-3-3, BH4 as cofactor); highest activation with GST-14-3-3γ:γ homodimer came out at 4.4 fold.
